The DeepSol protein solubility set

Assay: soluble on expression in E. coli; label from the status in PepcDB or PDB records

Sequence | soluble on expression in E. coli
MVAASKEFVFHHTFKDVSQLEDGDFFKSPEEIHYNAEWFILVIRTKDQLEAYLHCDNEKDDNVAWTVDAEFSLKIASSSGSYAMKFQKGCFDGFGLGWNDFVSWDSLTEDFLYDNSFTIEACVKITKMTGFSKDVLRSFDESEKRFSDVILVVGDEKFYVLKLFLASHSSYFNALFLGKFKEADQSEVTLQNIDPTDFQSLLEVLYGEPAIDDGTIDGVLLLAHMLDVTLAIRKCEEFLIEKSMKSMRELLKMANQYQLENLKVKFYFLKIPEN | not soluble
MVAKIKKFSDSTLSVLNNGERRFYVYCLTDLKKDKILYIGKGCGNRIFEHEWVASRSQDPVSGEIIDRKLKAISKCKKLGRYIISYHLTEVEALAAESALIHFVKSVLGKKLKNKIAGHGPGGISVEELDRRFGFSSLPLNEINPDGLILAIKIHNAFDLDTDEELDYLFDNQDDANLKSRTLGNWVIGKDVASKVKYVIGVHTGLQNAVVSAYEVDGFETMVEETKNGRKQSRYRFRTTSRSEEVLAKLGLQQKCLPELKFGSGGEKAYIRPKTETETEQENIQTTPNPKIKKEKTKSLEHHHHHH | soluble
MVAQARRQGCGERLTTATAVATPATAEQGETTMETVEEFLAHSIKLEQEAALRFGQLADAMDSCGNKEVSKLFRQLADYSRMHQADAQARAGFRDIPQMEPGDFKWPGLESPEAAAIWGTDPFIGRDLALQIALEAETGAFDWYKNVLDTTDNPEIKMLAKEFVEEESGHVAELHRWIALHKAGKPLPMEIVPF | not soluble
MVCDEKRYAIREVAEITGVKPVTLRAWQRRYNLVQPDRTEKGHRLFTDQDIEMIRQIQSWLAKGVAIGKVGALLQSGVSESESIPQPVGQLEECETLLTALAALQRSKAEQIIATVLKEYPLSVMQAQFVQPVTEALERVKGPLRSLQIGLFRTLMLSKLAFILDAENKAAVKGKCLCISLDEAGSLNAWLWALAWAENGHQVTLLEAVDDIRGLLENPGLAQYQILALHAHRALPAAQQSALASLQQQFGEQCVLSNVLQQLQS | not soluble
MVCSRSVSLLFTLLVGVYASTATDPIDSISTQGADILNRAKLTGQTVRQCSCSEQRVCVEEMKLQAKDCTVPCFQKFSSITSRPNDLKKCFDEKDNILEDFLTCFENRVEACVNDQHGPQIQKTDIRGIFKVTEKSIATQTNTFQTMIKPIKHILDATGDFALCVKDCFLEKNKSGFCFDRKGCQPLVAETKARQSFRACTKKMHWKREAGELCECSVQAGVDSRELRQYCAMFKLMRRRAPMRKSRG | not soluble
MVDIPAGEWQTDACPGWKEGRVCPPEKYLRQTLQIAPFQLSATAVTFAQWDACVDDGGCQEPDTGWAYQTRPNQPPCQAGSPCNYPYDEGWGRGDRPVIHVSWNDAQRYVDWLSQKTGQRYRLPTSEEWEYAAAAGSHARFAWGTKLGKNRGNCNGCGSRWDGKKTAPVASFAPNRFGLYDMVGNVSEWVSTCVPIRSKPGEDNQTCMAYLYRGGAWSYDAKSVGIDTYHSIDADFRANYIGFRVARLEHHHHHH | not soluble
MVDNKVTQSNKLIESSHTLTLNEKRLVLCAASLIDSRKPLPKDGYLTIRADTFAEVFGIDVKHAYAALDDAATKLFNRDIRRYVKGKVVERMRWVFHVKYREGQGCVELGFSPTIIPHLTMLHKEFTSYQLK | soluble
MVDTISVLNPIHLDLSVDPQDNVRISARSTTSSSASTSSDSELMSPRAEELLRMQAELRATRTALAEKDKKMTQIQVTVDAEVQELTEKLFQEAYKMVNTAEARREKAGKLLTESRLEVEVLQAEVRALKELISAPGMGQNHFKQTTSPEHKSTLSKLFNGSSSSSKKQKDAANVSDKKKASSLPSTSTYTLTPSEDREQKEANAVEEIDPILFSEFEFWREAGHPTTSHPFIDRVTVEEVEPCMLFENSELSEEIMKAIRENRVQLEPLNELKPSVRICALTNASRFCPYRVRTGDEEQEWHYVSLIARNRVSYSTFLGLGTIDNFN | not soluble
MVEVVRNKRPPRGLVPRLRRALAALMEELGVGDKGVTVILTGDRRLRALKREWWGEAGKAYRKSVGPFGPGLPRPRAKCQPLIISTWRPHF | soluble
MVFGENQDLIRTHFQKEADKVRAMKTNWGLFTRTRMIAQSDYDFIVTYQQAENEAERSTVLSVFKEKAVYAFVHLMSQISKDDYVRYTLTLIDDMLREDVTRTIIFEDVAVLLKRSPFSFFMGLLHRQDQYIVHITFSILTKMAVFGNIKLSGDELDYCMGSLKEAMNRGTNNDYIVTAVRCMQTLFRFDPYRVSFVNINGYDSLTHALYSTRKCGFQIQYQIIFCMWLLTFNGHAAEVALSGNLIQTISGILGNCQKEKVIRIVVSTLRNLITSNQDVYMKKQAALQMIQNRIPTKLDHLENRKFTDVDLVEDMVYLQTELKKVVQVLTSFDEYENELRQGSLHWSPAHKCEVFWNENAHRLNDNRQELLKLLVAMLEKSNDPLVLCVAAHDIGEFVRYYPRGKLKVEQLGGKEAMMRLLTVKDPNVRYHALLAAQKLMINNWKDLGLEI | not soluble
MVFGPGLCIAHRGTIVVNKGARVGENCRIHACTNIGSGRDNIFLAPKIGNGVYIGPGAKIFGSVEIADNIAIGANSVVNRSFYERGISIAGVPAKKISNKGSDGMVIAATKTVSVPVSQETILEHHHHHH | not soluble
MVGHKYPVKCLEVDKSKGRLVVSHRRAMAERQMEHLKTGALVEGTVQGVKPYGVFVDVFGTSGLLHISQISHDQVANIQSLFLPGEKVKCMVVSFDKQRGRISLSTKALEPHPGDMLRNKQLVYEKAEEMALSYNQRMDSPVRSKNTTSSSTDDIIAGLDIGSLDDLDPILFGTHTNSSNSNTHSDHLKQDSMNGTIPESDI | not soluble
MVGRKRRASMSITDGNGSLSDTVRPGDWVVVAELATPAFSVKNPESYQVASPLPLPLPSTLLGGLMRGASLLGSCTGGIASQSCIKKTGRIVKAAAPLSKPGQILGVEWEVVLRRLRKVLEPDSEEGSTRENRGNRVLDELSRISDALLRGYITPYNPVYAVFVARGRDNANRIEKALWYIDRLGDSESLVSARPVGRCQLAEFRSKSVNTPVALDSAVGGSFTVVYAPARAGRTGRTRRSEAIAIAMPVKKEAVERGYVLVYSEIEVEGSVYGCSVEGIDGRINVAVHESFHEVSGYGIWMPA | not soluble
MVHEEDFKEGYILGFIEAEGSFSVSIKFQRDVFGGVRLDPVFSITQKNREVLEAIKEHLGIGRIMEKAGQPNTYVYVVDNFNELVKLINFLNKYADFMIVKKRQFLMFREIANGLVNGEHLHINGLKRLVKLAYELTKESEKGYRKYDLNHVLSIIDKWDLGRNVSTSL | soluble
MVKGVETKTIVGLEVGTSKVVVVVGEVFPDGVVNVLGVGSCPSKGIDRGSITDLDAVVGSIQRAIEAAESMADCQIMSVTLAITGEHIQSLNESGFVPIAESEVTQEEIDSALHTASSIKLPEGL | not soluble
MVKSLQLAHQLKDKRILLIGGGEVGLTRLYKLMPTGCKLTLVSPDLHKSIIPKFGKFIQNKDQPDYREDAKRFINPNWDPTKNEIYEYIRSDFKDEYLDLENENDAWYIIMTCIPDHPESARIYHLCKERFGKQQLVNVADKPDLCDFYFGANLEIGDRLQILISTNGLSPRFGALVRDEIRNLFTQMGDLALEDAVVKLGELRRGIRLLAPDDKDVKYRMDWARRCTDLFGIQHCHNIDVKRLLDLFKVMFQEQNCSLQFPPRERLLSEYCSS | soluble
MVKVEDAIVARLESHGYHFEILVDPDAIERIRKGNIDIENDLAFPEVYKDVRKGEKASDDSLKEAFKTTVIAQVAIEIVKKGQIQLTTEQRREMYDERRKQIVNLIAREGINPQTNTPHTPYRISQAMDEAKVKIDPLKPAEDQVQNVLKAIMPIIPIRLEKAKIAVKLIGDAYGKLYGELAKSGYM | not soluble
MVKVVGVRFKKAGKIYYFDPGDLEINLHENVIVETARGIEFGQVVVPNTEVSEEEIVAPLKKVIRVATEEDKAHHEDNIRREKEAFDICLQKIANHKLEMKLVGVEYTFDNNKILFYFTADGRVDFRELVKDLASVFRTRIELRQIGVRDEAKMMGGLGVCGRVLCCNSFLGEFQPVSIKMAKEQGLSLNPAKISGACGRLMCCLKYEQEAYEEIISRVPKEGAIVETPDGQGVVMSVSLLKELVKVKLDRENETDLKVYKASEVKVIKDVTREETEEEEIDLDELKQLED | soluble
